For this assay, the target named is PDL1 on the surface of TC-1 cells (mouse (TC-1 murine tumor cell line)) (UniProt Q9EP73). In words: flow cytometry, staining of TC-1 tumor cells (background control). (In general: A flow cytometer gives signals particle by particle.)

The source of these data is patent US20180187211A1.

Chain of UniProt Q9EP73 (Q9EP73 19-290): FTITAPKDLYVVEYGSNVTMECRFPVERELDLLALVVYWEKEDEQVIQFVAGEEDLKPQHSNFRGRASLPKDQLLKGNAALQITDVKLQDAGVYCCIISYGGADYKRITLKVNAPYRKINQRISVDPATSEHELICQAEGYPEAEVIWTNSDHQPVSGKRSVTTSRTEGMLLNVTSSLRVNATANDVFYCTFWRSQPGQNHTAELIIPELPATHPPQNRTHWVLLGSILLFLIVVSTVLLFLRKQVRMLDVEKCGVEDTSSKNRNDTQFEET

As to PE-conjugated isotype control antibody, the median fluorescent intensity (MFI) is 184 MFI.
